Assay results from US20070053837A1, “Radiopharmaceuticals for cancer diagnosis and treatment” (priority 2003, published 2007).
Square brackets hold non-standard residues; d marks the D form. Peptide text beside a SMILES is read from it. * marks the point of attachment. DOTA = O=C(O)CN1CCN(CC(=O)O)CCN(CC(=O)*)CCN(CC(=O)O)CC1; Met(O2) = CS(=O)(=O)CC[C@H](N)C(=O)O; 2Thi = N[C@@H](Cc1cccs1)C(=O)O; Sar = CNCC(=O)O

Columns and labels:
[1] = tested on: gliomas / glioblastoma; set-up: species or system patients; details: in vivo
Description: As a third group which can serve as a control, 5 advanced cases that had been treated by the so called standard regimens with virtually no therapeutic option left anymore were included. […] In cases with biopsy alone, average survival is around 9 weeks without further treatment. In the 4 cases of this pilot study, all patients survived at least 2 months and up to 9 months, and In a special case even show a remarkable partial response. In the resected 5 cases followed by Internal radionuclide conjugate brachytherapy, overall survival appeared to be longer than expected which is in the range between 14 and 26 months. According to the only large randomized trial of 1970s which serves as historical control, resection alone would have led to an expected survival of about 4 months, and resection plus an external beam radiotherapy to a mean survival of about 9.5 months. […] This interpretation of the data is further supported by an impressive partial response (case W. […] A key question in local glioma therapy is whether one can achieve to reach infiltrating tumor cell nests or satellite lesion. […] The presently used dissipative Y-90 (range 3-6 mm) is more suitable for bulky lesions.

[2] = format: in vitro ADME, patients
Experimental: Further stability test by in vitro experiments incubating ^90Y-DOTAGA-Substance P in different CSF (cerebrospinal fluid) aspirates from patients are executed.

[3] = biological target: T1, NK1 receptors (Homo sapiens, UniProt P25103); assay: Binding affinity to NK-1 receptors, in vitro autoradiography, displacement of ^125I-Bolton-Hunter-SP; details: tumor tissue expressing NK1 receptors; radioligand ^125I-Bolton-Hunter-SP; concentrations 0.1 nM to 1'000 nM; read-out: IC50 ± SEM (mean value)
T1 construct: In vitro autoradiography is performed with tumor tissue expressing NK1 receptors; from tissue
T1 sequence (P25103 whole entry): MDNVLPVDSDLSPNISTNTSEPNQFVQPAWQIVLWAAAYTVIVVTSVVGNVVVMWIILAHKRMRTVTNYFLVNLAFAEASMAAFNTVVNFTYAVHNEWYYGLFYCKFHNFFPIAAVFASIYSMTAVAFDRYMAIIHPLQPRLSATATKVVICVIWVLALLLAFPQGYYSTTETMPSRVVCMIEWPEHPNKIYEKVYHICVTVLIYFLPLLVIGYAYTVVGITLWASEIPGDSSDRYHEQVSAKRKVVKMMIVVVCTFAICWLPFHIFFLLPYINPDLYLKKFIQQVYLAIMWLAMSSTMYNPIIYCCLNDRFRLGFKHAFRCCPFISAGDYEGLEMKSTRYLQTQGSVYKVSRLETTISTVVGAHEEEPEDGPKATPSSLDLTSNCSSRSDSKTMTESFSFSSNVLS
Experimental: Example C4 Binding Affinity to NK-1 Receptors In vitro autoradiography is performed with tumor tissue expressing NK1 receptors. The used radioligand is ^125I-Bolton-Hunter-SP. Displacement experiments are performed on successive sections with the various compounds listed in the Table given in concentrations ranging from 0.1 nM to 1'000 nM.

Row | IC50 [3] [nM] | Structure (SMILES) | also measured
1 |  | CSCC[C@H](NC(=O)[C@H](CC(C)C)NC(=O)CNC(=O)[C@H](Cc1ccccc1)NC(=O)[C@H](Cc1ccccc1)NC(=O)[C@H](CCC(N)=O)NC(=O)[C@H](CCC(N)=O)NC(=O)[C@@H]1CCCN1C(=O)[C@H](CCCCN)NC(=O)[C@@H]1CCCN1C(=O)[C@H](CCCNC(=N)N)NC(=O)CCC(C(=O)O)N1CCN(CC(=O)O)CCN(CC(=O)O)CCN(CC(=O)O)CC1)C(N)=O (single isomer, unassigned) [^111In-DOTAGA-Substance P, ^111In-DOTAGA-Arg^1-Pro^2-Lys^3-Pro^4-Gln^5-Gln^6-Phe^7-Phe^8-Gly^9-Leu^10-Met^11-NH2, metal not drawn] | diffusibility: distance of satellite lesion that becomes visible [1]: 4 cm
2 |  | CSCC[C@H](NC(=O)[C@H](CC(C)C)NC(=O)CNC(=O)[C@H](Cc1ccccc1)NC(=O)[C@H](Cc1ccccc1)NC(=O)[C@H](CCC(N)=O)NC(=O)[C@H](CCC(N)=O)NC(=O)[C@@H]1CCCN1C(=O)[C@H](CCCCN)NC(=O)[C@@H]1CCCN1C(=O)[C@H](CCCNC(=N)N)NC(=O)CCC(C(=O)O)N1CCN(CC(=O)O)CCN(CC(=O)O)CCN(CC(=O)O)CC1)C(N)=O (stereo partly drawn) [^90Y-DOTAGA-Substance P, ^90Y-DOTAGA-Arg^1-Pro^2-Lys^3-Pro^4-Gln^5-Gln^6-Phe^7-Phe^8-Gly^9-Leu^10-Met^11-NH2, metal not drawn] | stability in CSF aspirate [2]: stable for several hours; time to complete degradation in CSF aspirate [2]: ≤ 5 h
3 | 0.78 ± 0.03 | CC(C)C[C@H](NC(=O)CNC(=O)[C@H](Cc1cccs1)NC(=O)[C@H](Cc1ccccc1)NC(=O)[C@H](CCC(N)=O)NC(=O)[C@H](CCC(N)=O)NC(=O)[C@@H]1CCCN1C(=O)[C@H](CCCCN)NC(=O)[C@@H]1CCCN1C(=O)[C@H](CCCNC(=N)N)NC(=O)CN1CCN(CC(=O)O)CCN(CC(=O)O)CCN(CC(=O)O)CC1)C(=O)N[C@@H](CCS(C)(=O)=O)C(N)=O [^111In-DOTA-Arg^1-Pro^2-Lys^3-Pro^4-Gln^5-Gln^6Phe^7-Thi^8-Gly^9-Leu^10-Met(O2)^11—NH2, metal not drawn] ({DOTA}-RPKPQQF[2Thi]GL[Met(O2)]-NH2) | 
4 | 7.7 ± 0.7 | CSCC[C@H](NC(=O)[C@H](CC(C)C)NC(=O)CNC(=O)[C@H](Cc1cccs1)NC(=O)[C@H](Cc1cccs1)NC(=O)[C@H](CCC(N)=O)NC(=O)[C@H](CCC(N)=O)NC(=O)[C@@H]1CCCN1C(=O)[C@H](CCCCN)NC(=O)[C@@H]1CCCN1C(=O)[C@H](CCCNC(=N)N)NC(=O)CN1CCN(CC(=O)O)CCN(CC(=O)O)CCN(CC(=O)O)CC1)C(N)=O [^111In-DOTA-[Thi^7, Thi^8]-Substance P, ^111In-DOTA-Arg^1-Pro^2-Lys^3-Pro^4-Gln^5-Gln^6-Thi^7-Thi^8-Gly^9-Leu^10-Met^11-NH2, metal not drawn] ({DOTA}-RPKPQQ[2Thi][2Thi]GLM-NH2) | 
5 | 3.4 ± 0.4 | CSCC[C@H](NC(=O)[C@H](CC(C)C)NC(=O)CN(C)C(=O)[C@H](Cc1cccs1)NC(=O)[C@H](Cc1ccccc1)NC(=O)[C@H](CCC(N)=O)NC(=O)[C@H](CCC(N)=O)NC(=O)[C@@H]1CCCN1C(=O)[C@H](CCCCN)NC(=O)[C@@H]1CCCN1C(=O)[C@H](CCCNC(=N)N)NC(=O)CN1CCN(CC(=O)O)CCN(CC(=O)O)CCN(CC(=O)O)CC1)C(N)=O [^111In-DOTA-[Thi^8, Sar^9]-Substance P, ^111In-DOTA-Arg^1-Pro^2-Lys^3-Pro^4-Gln^5-Gln^6-Phe^7-Thi^8-Sar^9-Leu^10-Met^11-NH2, metal not drawn] ({DOTA}-RPKPQQF[2Thi][Sar]LM-NH2) | 
